Test: yeast display, Sf9 membrane polyspecificity reagent, FACS + sequencing; frameworks hold sequencing errors
In short: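 Synthetic nanobody libraries on Saccharomyces cerevisiae BJ5465 were galactose-induced for 36–48 hours, stained 1 hour at 4 °C with 10% biotinylated, detergent-solubilized Sf9 membrane reagent and enriched on streptavidin microbeads. FACS then separated cells into low and high (top ~1%) gates by anti-HA (expression) and streptavidin (reagent binding) fluorescence. Genes were colony-PCR amplified, MiSeq 2 × 250 sequenced and CDR-length filtered. A clone's polyreactivity label is that of its gate of origin.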

Sequence	polyreactivity (PSR sort gate)
QVQLVESGGGLVQAGGSLRLTCAASGSISGLYTMGWYRQAPGKERELVAAIRWTTGTTYYADSVKGRFTISRDNAKNTVYLQMNSLKPEDTAVYYCNVVTWYYVFRPWEYDYWGQGTQVTVSS	low polyreactivity
QVQLVESGGGLVQAGGSLRLSCAASGRIFGRYAMGWYRQAPGKEREFVAAISWRGGTTYYADSVKGRFTISRDNAKNTVYLQMNSLKPEDTAVYYCNARYQTGGYGYWGQGTQVTVSS	high polyreactivity
QVQHVESGGGLVQAGGSLRLSSAASGRIFSWNAMVWYRQAPGKERELVAAITNGGGTYYADSVKGRFTISRDNAKNTVYLQMNSLKPEDTAVYYCNAYRRKLWYPTGMYWGQGTQVTVSS	high polyreactivity
QVQLVESGGGLVQAGGSLRLSCAASGRTFLYNAMGWYRQAPGKERELVAAISFDDGSTYYADSVKGRFTISRDNAKNTVYLQMNSLKPEDTAVYYCAAEYLYVGDSQAYNQYEYWGQGTQVTVSS	low polyreactivity
QFQLVESGGGLVQAGGSLRLSCAASGITIRWYAMGWYRQAPGKERELVAGISSRGDSTYYADSVKGRFTISRDNAKNTVYLQMNSLKREDTAVYYCAAPGSSYRGRGYDYWGQGTQVTVSS	high polyreactivity
QVQLVESGGGLVQAGGSLRLSCAASGITFHSYAMGWYRQAPGKERELVAGISSGGSTNYADSVKGRFTISRDNAKNTVYLQMNSLKPEDTAVYYCNADTPFYEYDYWGQGTQVTVSS	low polyreactivity
QVQLVESGGGLVQAGGSLRLSCAASGRIFQYYTMGWNRQAPGKERELVAAITYSGGDTRYADSVKGRFTISRDTAKNTVYLQMNSLKPEDTAVYYCAADYFDQYQYGVWTYGYWGQGTQVTVSS	low polyreactivity
QVQLVESGGGLVQAGGSLRLSCAASGRILYQYAMGWYRQAPGKERELVASISGRSGRTRYADSVKGRFTISRDNAKNTVYLQMNSLKPEDTAVYYCNAGSSVLKYDYWGQGTQVTVSS	low polyreactivity
QVQLVESGGGLVQAGGSLRLSCAASGSNFYGYAMGWYRQAPGKERELVAAISSGGRTKYADSVKGRFTISRDNAKNTVYLQMNSLKPEDTAVYYCNVSYLVDRWKFGWSMDYWGQGNQVTVSS	low polyreactivity
QVQLVESGGGLVQAGGSLRLSCAASGSIFFKYTMGWYRQAPGKERELVAAITYTGGRTYYADSVKGRFTISRDNAKNTVYLQMNSLKPEDTAVYFCNKVTPRQGNRLAGVSGYDYWGQGTQVTVSS	high polyreactivity
QVQLVESGGGLVQAGGSLRLSCAASGFTFAYYAMGWYRQAPGTERELVAAITYSGGSTYYADSVKGRFTISRDNAKNTVYLQMNSLKPEDTAVYYCNAYDRRYYYGRWYGEFDYWGQGTQVTVSS	low polyreactivity
QVQLVESGGGLVQAGGSLRLSCAASGSIFSKNAMGWYRQAPGKERELVAAITGGGSTYYADSVKGRFTISRDNAKNTVYLQMNSLKPEDTAVYYCAAEFYVWGQGTQVTVSS	low polyreactivity
PVQLVESGGGLVQAGGSLRLSCAASGRTFYKYAMGWYRQAPGKERELVAAISKSGGRTYYADSVKGRFTISRDNAKNTVYLQMNSLKPEDTAVYYCAAEPFIPDQSRYYYWGQGTQVTVSS	high polyreactivity
QVQLVESGGGLVQAGGSLRLSCAASGFTFNFNAMGWYRQAPGKERELVAAIRWSGGNTYYADSVKGRFTISRDNAKNTVYLQMNSLKPEDTAVYYCNRVGYQSMNYWGQGTQVTVSS	low polyreactivity
QVQLVESGGGLVQAGGSLRLSCAASGRTIGSNVMGWYRQAPGKERELVAAITYSGVSTYADSVKGRFTISRDNAKNTVYLQINSLKPEDTAVYYCNAYPTTYYQQYDYWGQGTQVTVSS	low polyreactivity
QVQLVETGGGLVQAGGSLRLSCAASGRTFEYNAMGWYRQAPGKERELVATIRYSGTSTYADSVKGRFTISRDNAKNPVYLQMNSQKPEDTAVYYCAKQVRYYGYKYNYWGQGTQVTVSS	high polyreactivity
QVQLVESGGGLVQAGGSLRLSCAASGSIRRYAMGWYRQAPGKERELVAAISGSGVSTYYADSVKGRFTISRDNAKNTVYLQMNSLKPEDTAVYYCAAAAIYFRYDYWGQGTQVTVSS	high polyreactivity
QVQLVESGGGLVQAGGSLRLSCAATGSTIEANTMGWYRQAPGKERELVASITTSGGSTNYADSVKGRFTISRDNAKNTVYLQMNSLKPEDTAVYYCAVRSTYARWNWRTADSSRDYWGQGTQVTVSS	low polyreactivity
QVQLVESGGGLVQAGGSLRISCAASVSIFPGYAMGWSRQAPGKERELVATITWSGGSTYYADSVKGRFTISRDNAKNTVYLQMNSLKPEDTAVYYCNADSNWYYQWNYYCLYDYWGQGTQVTVSS	low polyreactivity
QVQLVESGGGLVQAGGSLRLSCAASGRIFVRNPMGWYRQAPGKERELVADITNGGSTNYADSVKGRFTISRDNAKNTVYLQMNSLKPEDTAVYYCAATYPYSWVYSGYYYWGQGTQVTVSS	low polyreactivity

Sequence	polyreactivity (PSR sort gate)
QVQLVESGGGLVQAGGSLRLSCAASGRIFSYYTMGWYRQAPGKERELVAAISSGGSTNYADSVKGRFTISRDNAKNTVYLQMNSLKPEDTAVYYCAVRSGRRNYDRPAFGYWGQGTQVTVSS	high polyreactivity
QVQLVESGGGLVQAGGSLRLSCAASGSTFESYDMGWYRQAPGNERELVAAIDWSGGITYYADSVKGRFTISRDNAKNTVYLQMNSLKPEDTAVYYCNADWFVRYPKRVYWAEYDYWGQGTQVTVSS	low polyreactivity
QVQLVESGGGLVQAGGSLRLSCAASGRTSVLYAMGWSRQAPGKEREFVAAITWNSGSTYYADSVKGRFTISRDNAKNTVYLQMISLKPEDTAVYYCNADYYFTSYRSTYDYWGQGTHVTVSS	low polyreactivity
QVQLVESGGGLVQAGGSLRLSCAASGRIFWSYAMGWYRQAPGKEREFVAVITWSGGSTYYADSVKGRFTISREYAKNTVYLEMNSLKPEDTAVYYCKADYYGPYRDYGYWGQGTQVTVSS	low polyreactivity
QVQLVESGGGLVQAGGSLRLSCAASGITFDWNAMGWYRQAPGKERELVAAISSGASTYYADSVKGRFTISRDNAKNTVYLQMNSLKPEDTAVYYCAKRHAINIHAVGPYYTSMDYWGQGTQVTVSS	low polyreactivity
QVQLVESGGGLVQAGGSLRLSCAASGSIFPANAMGWYRQAPGKERELVAGISERGSSTYYAVSVKGRFTISRDNAKNTVYLQMNSLKPEDTAVYYCAADLVGRYWSSTHNWARGDYWGQVTQVTVSS	low polyreactivity
QVQLVESGGGLVQAGGSLRLSCAASGRISYLYTMGWYRQAPGKERELVAAIRWRDGSTYYADSVKGRFTISRDNAKNTVYLQMNSLKPEDTAVYYCAKRFAGGEYGYYWGQGTQVTVSS	low polyreactivity
QVQLVESGGGLVQAGGSLRLSCAASGSIFKYYAMGWYRQAPGKERELVAAISNGGSTNYADSLKGRFTISRDNAKNTVYLQMNSLKPEDTAVYYCAAGWFGYSAKYDYWGQGTRVTVSS	high polyreactivity
QVQLVESGGGLVQAGGSLRLSCAASGRTFSYNAMGWYRQAPGKERELVAAITSSGGGTSYADSVKGRFTISRDNAKNTVYLQMNSLKPEDTAVYYCNRVLPHPDGYGVGARGYWGQGTQVTVSS	high polyreactivity
QVQLVESGGGLVQAGGSLRLSCAASGSIFGWYVMGWYRQAPGKERELVAAISSVGSTYYADSVKGRFTISRDNAKNTVYLQMNSLKPEDTAVYYCAADRVWGTPQAYVPSQFDYWGQGTQVTVSS	low polyreactivity
QVQLVESGGGLVQARGSLRLSCAASGSTLRRYAMGWYRQAPGKERELVAAISSSGGSTYYADSVKGRFTISRDNAKNTVYLQMNSLKPEDTAVYYCAALVRKRVNTYQGYYPGDYWGQGTQGTVSS	high polyreactivity
QVQLVESGGGLVQAGGSLRLSCAASGSIFLYYTMGWYRQEPGKERELVAAITWSGSSTYYADSVKGRFTISRDNAKNTVYLQMNSLKPEDTAVYYCATRYRYRYWGQGTQVTVSS	high polyreactivity
QVQLVESGGGLVQAGGSLRLSCAASGRTFWYYDMGWSRQAPGKERELVAAISRSGGSTYYADSVKGRFTISRDNAKNTVYLQMNSLKPEDTAVYFCAAVSYGYWVTEYYYWGQGSQVTVSS	high polyreactivity
QVQLVDSGGGLVQEGGSLRLRCAASGYTFDWYAMGWYRQAPGKERELVAAINSGGGTYYADSVKGRFTISRDNAKNSVYLQMNSLKPEDTAVYYCAKYTYDYWGQGTQVTVSS	low polyreactivity
QDQLVETGGGLVQAGGSLRISCADSGFTFGVNAMGWYREAPGKERELVAVITSGGNTYYADSVKGRFTISRDNAKNTDYCQMNSLKPEDTAVYYCAAYGRDSWDRDYWGQGTQVTVSS	low polyreactivity
QVQLVESGGGLVQAGGSLRLSCAASGFIFYRNAMGWYRQAPGKERELVAAISKSGGITYYADSVKGRFTISRDNAKNTVYLQMNSLKPEDTAVYYCAKASQNGYDYWGQGTQVTVSS	high polyreactivity
QVQHVESGGGLVQAGASLRLSCAASGLTFYRYALGWYRQARGNERELVAAITSGTRTYYADSVKGRFTISRDNAKNTVYLQMYSLKPEDTAVYYCAASWQTRTYQSRYYYWGQGTQVTVSS	high polyreactivity
QDQHVESGGGLVQAGGSLRLSCAASGLIFNNYAMGWYRQAPGKERELVAPISRTGTSTYYADSVKGRFTISRDNAKNTVYLQMNSLKPEDTAVFYCNAVIQLFEWGWDDEYDYWGQGTQVTVSS	low polyreactivity
QVQLVESGGGLVQAGGSLRLRCAASGRIRYYGIGCYRQAPGKERELVAAITWRAGRTYYADSVKGRFTISRDNANITVYLHMNSLKPEDSAVYYCAAAIYSRSFRVDYWGQGTQVSVSS	high polyreactivity
QVQLVESGGGLVQAGGSLRLSCAASGTFYGKTMGWYRQAPGKERELDAVISIDGSTNYADSVKGRFTISRDNAKKTVYLQMNSLKPEDTAVYYCNARNQWRTVGKYDYWGQGTQVTVSS	low polyreactivity

— the nanobody polyreactivity screen of Harvey et al. (2022)
